Experimental data: IntAct's records for PubMed 21516123

B1: Peroxiredoxin-1 (Mus musculus), P35700 (parent)
chain: MSSGNAKIGYPAPNFKATAVMPDGQFKDISLSEYKGKYVVFFFYPLDFTFVCPTEIIAFSDRADEFKKLNCQVIGASVDSHFCHLAWINTPKKQGGLGPMNIPLISDPKRTIAQDYGVLKADEGISFRGLFIIDDKGILRQITINDLPVGRSVDEIIRLVQAFQFTDKHGEVCPAGWKPGSDTIKPDVNKSKEYFSKQK
partner: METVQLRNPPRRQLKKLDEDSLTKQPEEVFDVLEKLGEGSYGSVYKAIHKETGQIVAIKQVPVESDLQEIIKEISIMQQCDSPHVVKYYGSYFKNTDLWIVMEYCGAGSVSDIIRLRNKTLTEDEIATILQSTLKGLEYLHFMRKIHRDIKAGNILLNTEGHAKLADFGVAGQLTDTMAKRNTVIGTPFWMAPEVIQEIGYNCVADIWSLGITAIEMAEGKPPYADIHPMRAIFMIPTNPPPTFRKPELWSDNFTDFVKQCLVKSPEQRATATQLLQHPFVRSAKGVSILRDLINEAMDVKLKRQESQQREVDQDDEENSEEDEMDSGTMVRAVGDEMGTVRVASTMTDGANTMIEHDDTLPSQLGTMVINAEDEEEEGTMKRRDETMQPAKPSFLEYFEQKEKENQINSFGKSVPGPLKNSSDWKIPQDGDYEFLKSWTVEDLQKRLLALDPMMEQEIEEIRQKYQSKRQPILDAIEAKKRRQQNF

Variants of: B1
Details: with stk4_human STK4, Q13043

| effect of a mutation on the interaction | Variant |
| --- | --- |
| increasing interaction | C173S |
| decreasing interaction | C83S |
| disrupting interaction | C52S |
